Measured values reported in IntAct's records for PubMed 8940099.

B1: NF-kappa-B inhibitor alpha (Homo sapiens), P25963 (parent)
chain: MFQAAERPQEWAMEGPRDGLKKERLLDDRHDSGLDSMKDEEYEQMVKELQEIRLEPQEVPRGSEPWKQQLTEDGDSFLHLAIIHEEKALTMEVIRQVKGDLAFLNFQNNLQQTPLHLAVITNQPEIAEALLGAGCDPELRDFRGNTPLHLACEQGCLASVGVLTQSCTTPHLHSILKATNYNGHTCLHLASIHGYLGIVELLVSLGADVNAQEPCNGRTALHLAVDLQNPDLVSLLLKCGADVNRVTYQGYSPYQLTWGRPSTRIQQQLGQLTLENLQMLPESEDEESYDTESEFTEFTEDELPYDDCVFGGQRLTL
partner: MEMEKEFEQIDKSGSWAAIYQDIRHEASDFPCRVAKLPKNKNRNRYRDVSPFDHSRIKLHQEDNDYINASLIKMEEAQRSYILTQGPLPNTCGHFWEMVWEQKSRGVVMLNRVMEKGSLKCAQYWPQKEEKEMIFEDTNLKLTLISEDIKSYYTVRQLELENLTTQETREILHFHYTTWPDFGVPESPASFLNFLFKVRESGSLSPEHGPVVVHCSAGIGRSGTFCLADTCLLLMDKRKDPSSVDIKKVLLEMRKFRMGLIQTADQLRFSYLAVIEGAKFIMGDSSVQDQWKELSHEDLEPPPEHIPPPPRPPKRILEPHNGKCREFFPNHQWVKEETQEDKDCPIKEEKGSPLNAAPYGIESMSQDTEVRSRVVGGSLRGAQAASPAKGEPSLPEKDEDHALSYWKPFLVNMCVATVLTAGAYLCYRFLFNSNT

Variants of: B1
Details: with ptn1_human PTPN1, P18031

Row | Variant | effect of a mutation on the interaction
1 | MFQAAERPQEWAMEGPRDGLKKERLLDDRHDSGLDSMKDEEFEQMVKELQEIRLEPQEVPRGSEPWKQQLTEDGDSFLHLAIIHEEKALTMEVIRQVKGDLAFLNFQNNLQQTPLHLAVITNQPEIAEALLGAGCDPELRDFRGNTPLHLACEQGCLASVGVLTQSCTTPHLHSILKATNYNGHTCLHLASIHGYLGIVELLVSLGADVNAQEPCNGRTALHLAVDLQNPDLVSLLLKCGADVNRVTYQGYSPYQLTWGRPSTRIQQQLGQLTLENLQMLPESEDEESYDTESEFTEFTEDELPYDDCVFGGQRLTL [Y42F] | disrupting interaction
